Where “and” joins values, the source holds several entries; their conditions need not be identical. Equal values may be shown once.
Tests used:
Assay type in all cases: cell-based, human
claudin-1 = test: Western blot of claudin-1 in siRNA transfected PHK; settings: 48 h
Experimental: (§1) PHK were lysed on ice in RIPA lysis buffer (20 mM Tris, 50 mM NaCl, 2 mM EDTA, 2 mM EGTA, 1% sodium deoxycholate, 1% TX-100, and 2% SDS, pH 7.4), with 1:100 Protease Inhibitor Cocktail (Sigma), 1:100 Phosphatase Inhibitor Cocktail ([…] for 30 min at 4° C. The samples were heated at 95° C. for 10 min and then centrifuged at 14,000 rpm for 15 min. Forty μg of protein, determined by BCA (Pierce) in NuPage LDS Sample Buffer (Invitrogen) was applied to 4-12% NuPage Bis-Tris gels (Invitrogen). Electrophoresis was performed under reducing conditions with MES SDS Buffer (Invitrogen). Membranes were incubated in blotting solution (5% non-fat dry milk in PBS+0.05% Tween 20) at RT for 1 h and then incubated with primary antibodies; claudin-1 (JAY.8; Zymed), occludin (OC/3F10; Zymed) and GAPDH (FL-355; Santa Cruz). An HRP-linked secondary antibody (GE Healthcare) was used with ECL (GE Healthcare) to visualize bands by autoradiography with Kodak BioMax MR film. The pixel intensity of each band was estimated with Image J.
(§2) PHK were plated on glass coverslips at 2-3×10^5 cells/well in a 6-well plate or at 2-3×10^4 cells/filter in Transwell insert (Costar; PET membrane, 0.4 μm pore size, 6.5 mm insert) in Keratinocyte-SFM without antibiotics. […]

occludin = test: Western blot of occludin in siRNA transfected PHK; settings: 48 h
Experimental: as §1, §2

HSV-1 strain F [1] = test: HSV-1 fluorescent-focus assay in siRNA transfected PHK; settings: siRNA 100 nM
Experimental: (§3) Infection studies were performed using the highly virulent HSV-1 strain F (provided by Dr. D.C. Johnson). Twenty-four to 48 h post-transfection with 100 nM claudin-1 or control siRNA, the cells were differentiated in DMEM with 10% heat-inactivated FBS for 24 h. Cells were washed twice with HBSS and infected with HSV-1 strain F at a multiplicity of infection (MOI) of 0.1 in DMEM containing 1% heat-inactivated FBS at 37° C., with rocking every 15 min. After 2 h, the viral inoculum was removed, and the cells were washed 2× with HBSS and incubated in DMEM containing 5% HI-FBS and 0.4% human-γ-globulin (Sigma; final concentration 0.5 mg/ml) for 24 hr to neutralize any extracellular virus.
HSV-infected PHK were washed 2× with PBS and fixed in 4% formaldehyde/PBS for 20 min at room temperature. A polyclonal rabbit anti-HSV-1 (Dako) antibody diluted 1:500 in PBS/1% BSA was placed on the PHK for 1 h at 37° C. followed by Alexa Fluor 488 donkey-anti-rabbit IgG H+L (1:1000, Molecular Probes) and 4′,6-diamidino-2-phenyl-indole, dihydrochloride (DAPI) (1:10,000, Molecular Probes). Coverslips were mounted onto slides with SlowFade (Molecular Probes). […] Images were stored in Portable Network Graphics (PNG) format and analyzed computationally to objectively quantify differences in focal forming units (FFU). […] Cell density was calculated by counting the number of DAPI labeled nuclei, assigned to the blue channel. Images were analyzed using MATLAB to enumerate FFU, and total cell number. […]
The MOI was chosen based on findings from viral titration (0.01 to 10 MOI) studies on differentiated and undifferentiated PHK, respectively, used as negative and positive controls. […] For each sample, six random fields were captured at identical acquisition settings and analyzed computationally to objectively quantify differences in focal forming units (FFU). […] An average of 4.8±0.7 FFU/field were counted in CLDN1 knockdown PHK, while only 2.5±0.5 FFU/field were detected in the control cells (P=0.05; n=6; FIG. 15C). Adapted Fluorospot software was used to semi-quantify differences in dimensions of each FFU. […]

HSV-1 strain F [2] = test: Infectious center assay (HSV-1 infected PHK on Vero cells); settings: siRNA 100 nM, 24 h post-infection, n=3
Experimental: as §3
Twenty-four hours post-infection, PHK were treated with 0.05% Trypsin—EDTA (Invitrogen/Gibco) for 5 min at 37° C. followed by gently scraping to lift the cells, washed 3 times in DMEM containing 1% HI-FBS, and vortexed for 30 sec to disrupt cell clumps. Alive cells were counted using Trypan blue exclusion and scalar PHK dilutions (1000 to 1 cells in 1 ml of media) were plated onto pre-grown monolayers of Vero cells in six well plates. After 2 h, 1 ml of DMEM containing 5% HI-FBS and 0.4% human-γ-globulin (Sigma; final concentration 0.5 mg/ml) was added to each well. […] Plaques were counted by 2 independent investigators and results expressed as percent of infected PHK.

Sequence of claudin-1 (O95832 whole entry): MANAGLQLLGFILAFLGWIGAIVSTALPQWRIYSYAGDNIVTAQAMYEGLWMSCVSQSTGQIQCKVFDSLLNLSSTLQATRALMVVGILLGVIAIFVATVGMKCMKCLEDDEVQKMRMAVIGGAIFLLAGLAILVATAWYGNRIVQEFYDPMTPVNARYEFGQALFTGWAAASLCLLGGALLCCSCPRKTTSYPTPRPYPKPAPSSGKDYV

B1: CLDN1 siRNA: claudin-1 siRNA (h), Santa Cruz; a pool of 3 separate strands, SEQ ID NO: 10-15 (nucleic acid)
chain 1: UACAUAGGCAUAGUUCAUGNN
chain 2: CAUGAACUAUGCCUAUGUANN
chain 3: AACGUAUGCAGUUAAUUCCNN
chain 4: GGAAUUAACUGCAUACGUUNN
chain 5: UGAAGAUCUAUGUAUGUGGNN
chain 6: CCACAUACAUAGAUCUUCANN
modifications: chemistry not given here
claudin-1 protein by Western blot (claudin-1): dose-dependent reduction | decrease in claudin-1 protein expression compared to scrambled siRNA-transfected cells (claudin-1; Western blot, dose-dependent): ≤ 60% | occludin protein by Western blot (occludin): No change | HSV-1 focal forming units (HSV-1 strain F [1]; HSV-1 MOI 0.1, 24 h, n=6): 4.8±0.7 FFU/field | FFU area (HSV-1 strain F [1]; HSV-1 MOI 0.1, n=6): 15649±4367 pixels | diameter of the major axis of FFU (HSV-1 strain F [1]; HSV-1 MOI 0.1, n=6): 207±22 μm and 207±21 μm | PHK infected with HSV-1 (HSV-1 strain F [2]): 38±6% and 38±6.43%
